± gives the standard deviation.
Experiment: protein stability index of a GFP-peptide fusion (GPS, HEK-293T) (PSI 1-6); higher = more stable
Details: c terminus: a fixed tail appended
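Also: 24-mer peptide tiles fused after GFP, lentivirally expressed, FACS-sorted into six equal bins by GFP/DsRed ratio, decoded by Illumina sequencing, PSI is the read-weighted mean bin number.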

Row | Sequence | protein stability index (treatment: DMSO) | protein stability index (treatment: MLN4924 1 uM, 8 h)
1 | KLTDFGFAKKLVDRTWTLCGTPEY [PRKX] | 2.12 ± 0.11 | 2.27 ± 0.23
2 | SVQVDGQARTQKLQGLIPGARYEV [TNXB] | 2.6 ± 0.62 | 3.28 ± 0.26
3 | CRRCYDWIHRPGCRCKNSNTVYCK [SPRY1] | 2.82 ± 0.089 | 3.05 ± 0.13
4 | QIITSLVFHLPFYSSNQLHHFFCD [OR10K2] | 2.8 ± 0.094 | 3.02 ± 0.21
5 | EVLRRLTSSVSCALDEAAAALTRM [ANKRD17] | 2.3 ± 0.53 | 2.1 ± 0.3
6 | QVLNETRNQYEALVETNRREVEQW [KRT33B] | 4.24 ± 0.43 | 4.5 ± 0.17
7 | VLGFLIENFKGLAIPYLEHIIHVW [VPS39] | 2.36 ± 0.46 | 2.5 ± 0.31
8 | LPVLRGFPAKYIYDPWNAPEGIQK [CRY1] | 2.39 ± 0.17 | 2.28 ± 0.34
9 | LPSNLVQYYDDEKKTWKILTIMPY [KLHL14] | 2.42 ± 0.33 | 2.3 ± 0.12
10 | EPQWFYEETESSDDVEVLTLKKFK [C8orf76] | 4.66 ± 0.094 | 4.74 ± 0.15
11 | ELSEVLENQSSQAELKEAVEEPSS [CHGA] | 5.78 ± 0.21 | 5.67 ± 0.34
12 | YDLDKIIELNGGQPPLTYKRFQTL [CRY1] | 2.69 ± 0.38 | 2.77 ± 0.32
13 | KTTIPEEEEEEEEAAGVVVEEELF [LMNB1] | 5.55 ± 0.29 | 5.62 ± 0.2
14 | QKTSRSSSIPCSGSLDGRELSRQV [PPEF2] | 4.32 ± 0.23 | 4.48 ± 0.42
15 | ALTGHLRTHSVIKEETNHSEMAED [IKZF1] | 5.38 ± 0.23 | 5.13 ± 0.31
16 | VNQYVIRPGPSASAASSAAAGEPL [RNF208] | 3.88 ± 0.22 | 3.96 ± 0.23
17 | VEQPKGTEVVRDAVRKLKFARHIK [GULP1] | 3.7 ± 0.11 | 3.77 ± 0.16
18 | EFKQNIENVSVEMLLRKFAESKGT [FCHO1] | 2.84 ± 0.27 | 3.02 ± 0.32
19 | EVEKRGINGSEGDGAEIAEKFVFF [DYNC2LI1] | 3.8 ± 0.33 | 4.41 ± 0.34
20 | LCRAQRERLASANLRVLVDCILRD [TEKT4] | 2.08 ± 0.58 | 2.41 ± 0.21
21 | RVPQTWSKRLYGVYDNEKKLQLQL [PLD5] | 2.39 ± 0.32 | 2.31 ± 0.28
22 | SQNSSLVQHERIHTGDKPYKCAEC [ZNF8] | 4.58 ± 0.29 | 4.82 ± 0.28
23 | LEKKNEALKERADSLAKEIQYLKD [ATF4] | 4.53 ± 0.24 | 4.45 ± 0.056

Row | Sequence | protein stability index (treatment: DMSO) | protein stability index (treatment: MLN4924 1 uM, 8 h)
24 | RFVQAEGRRATLQRLVEALEENEL [TRADD] | 3.57 ± 0.39 | 3.62 ± 0.37
25 | YKMFASRRKQRYWPFSMDCTGTEA [LOXL2] | 2.3 ± 0.27 | 2.15 ± 0.33
26 | KGGLVWDENSSDGRYVKENCKPLK [CLK3] | 4.53 ± 0.098 | 4.82 ± 0.12
27 | PPLEDFEVLDGVEDAEGEEEEEEE [FKBP8] | 5.69 ± 0.27 | 5.61 ± 0.34
28 | PYTRSIQILKDTKSITSAMNELQH [TPH1] | 2.61 ± 0.22 | 2.71 ± 0.16
29 | IKIFKYISFNKTMTQLSSTLARCA [PKD2L1] | 2.37 ± 0.15 | 2.26 ± 0.19
30 | DTKMSFQWRIRNLPYPKDVYSVSV [DPCD] | 2.79 ± 0.52 | 2.71 ± 0.65
31 | VLQIDNAKLAADDFRTKYETELSL [KRT36] | 3.54 ± 0.37 | 3.49 ± 0.14
32 | AEEIRIKGKYNISSEDYRQLELVI [KCNK9] | 2.25 ± 0.2 | 2.05 ± 0.38
33 | PSRKYISTKAIPEKYGAVREVILK [ZBED1] | 2.87 ± 0.18 | 2.92 ± 0.34
34 | EDVKCQEDQKLQVLLTQIESKKHQ [TRIM15] | 5.12 ± 0.32 | 5.18 ± 0.1
35 | KPYDPPGEKMVAAKVKGEKLDKKL [ATF4] | 5.12 ± 0.21 | 5.12 ± 0.056
36 | TGQSKIYSYMSPNKCSGMRFPLQE [KMT5A] | 2.28 ± 0.29 | 2.27 ± 0.11
37 | NLSRGQTPLTEGSEDLDGHSDPEE [RETREG3] | 5.65 ± 0.22 | 5.67 ± 0.15
38 | SITSKPATLTTTSATSKLIHPDED [ZNF207] | 5.31 ± 0.26 | 5.44 ± 0.28
39 | RAGPDSAGIALYSHEDVCVFKCSV [CARM1] | 2.35 ± 0.47 | 2.06 ± 0.41
40 | LAYGSVITVKNLRMAIGYLHSHRH [POMT2] | 2.53 ± 0.69 | 2.63 ± 0.65
41 | MLESPGAPCRSAQASVSCALEALE [HDAC6] | 3.35 ± 0.58 | 3.38 ± 0.4
42 | ELQGLPELHEECEGNHPSARKLTA [NET1] | 4.87 ± 0.21 | 4.56 ± 0.41
43 | PKCSCGQLAAVHLSKSRTDYQPTQ [RNF180] | 2.55 ± 0.17 | 2.63 ± 0.35
44 | ASREENQAGPEATTSDPQDLDMKK [PALM] | 5.53 ± 0.46 | 5.43 ± 0.42
45 | SDLPTPQAIEPQAIVQQVPAPSRM [SNX8] | 5.21 ± 0.11 | 5.13 ± 0.19
46 | ILALELICSLICLLIYTVKIRRFN [TMEM192] | 3.42 ± 0.29 | 3.2 ± 0.41

Row | Sequence | protein stability index (treatment: DMSO) | protein stability index (treatment: MLN4924 1 uM, 8 h)
47 | HRVLQRLEQRRQQASEREAPSIEQ [FCHSD1] | 5.09 ± 0.25 | 4.99 ± 0.26
48 | KNANRPLLDEIVPVYRRDCHEEVY [ACBD3] | 3.88 ± 0.1 | 3.74 ± 0.15
49 | EGASSQIGRAAGTGFTVNVAWNGP [HDAC6] | 3.13 ± 0.34 | 3.38 ± 0.29
50 | DEEEEEEEEEEGRFYYSEDDHGDE [KCNA4] | 5.56 ± 0.14 | 5.55 ± 0.28
51 | LSFAHANCTLIISYQKPKEVVVAE [DPCD] | 2.69 ± 0.84 | 2.79 ± 0.73
52 | STPFKPLALKTPPRVLTLSERPLD [MFF] | 4.08 ± 0.17 | 4 ± 0.15
53 | WDLNMENRPIETYQVHDYLRSKLC [PPP2R2B] | 2.65 ± 0.34 | 2.72 ± 0.29
54 | NLPNLAAAYSSILSSLGENPQRQG [GCH1] | 3.03 ± 0.2 | 3.2 ± 0.43
55 | EANGLLPDDKLTLFCEVSVVQDSV [SPOPL] | 2.88 ± 0.49 | 3.03 ± 0.66
56 | HSLYRRTGASFQKAQQEFAAGVFS [SCAMP3] | 2.81 ± 0.14 | 2.85 ± 0.14
57 | GGSAVCASRVKLQHLPAQEQWDRL [PLEKHN1] | 3.08 ± 0.43 | 3.06 ± 0.29
58 | TFYVRFFLTYVPLLGLKAFLGLFF [FADS1] | 2.93 ± 0.3 | 3.24 ± 0.29
59 | TYVDKKRDLLGALKHWRRAMELRH [FEM1A] | 2.28 ± 0.26 | 2.31 ± 0.11
60 | ETRVWHRRDGKWQNVHFHRSGSPT [CAMK2D] | 3.74 ± 0.35 | 3.71 ± 0.17
61 | SDRFGRKKVYLTGFALDILFAIAN [SLC22A15] | 2.51 ± 0.64 | 2.17 ± 0.41
62 | EGTFRPERLLAVAERYGLSGSDVL [RAD51] | 3.23 ± 0.18 | 3.45 ± 0.11
63 | RYLFLDGDSHYEIEIVHISTVQIL [ZFYVE21] | 2.89 ± 0.26 | 2.61 ± 0.4
64 | LKKIKEKDKENKFLCVLMSDWFNF [CLK3] | 2.14 ± 0.36 | 2.24 ± 0.24
65 | AWNSPFYNCGEESLQSCMHFQPNS [NANOGP8] | 2.41 ± 0.13 | 2.43 ± 0.41
66 | QEYFERHRWPPVWYLKEEDHYQRV [RHOBTB1] | 3.08 ± 0.24 | 3.08 ± 0.1
67 | EGYTSFWNDCISSGLRGGILIELA [GOLPH3L] | 3.14 ± 0.74 | 2.49 ± 0.52
68 | TALVGLRQNLSKSWLDVQVSNTYV [TPD52L3] | 2.39 ± 0.96 | 2.19 ± 0.53
69 | PKTVPSHVFSELWDLSEAWMQANY [ELOA2] | 2.6 ± 0.26 | 2.56 ± 0.41

Row | Sequence | protein stability index (treatment: DMSO) | protein stability index (treatment: MLN4924 1 uM, 8 h)
70 | PANVDASVMYRKWKESKGKDREYT [CDC34] | 4.16 ± 0.33 | 4.21 ± 0.13
71 | LLKFDNSYSLWRSKSVYYRVYYTR [ACBD3] | 2.41 ± 0.55 | 2.49 ± 0.54
72 | EEREKEAAEQAERSQSSIVPEEEQ [SMARCE1] | 5.62 ± 0.36 | 5.57 ± 0.15
73 | ITPQGVAMRAGVLADDHLIEVNGE [PDZK1] | 4.72 ± 0.095 | 4.78 ± 0.22
74 | AVADSIPQVLADLGSFESPANSET [PCDHGA10] | 5.07 ± 0.54 | 5.35 ± 0.2
75 | LRDKIMATTIDNSRVILEIDNARL [KRT15] | 2.59 ± 0.27 | 2.66 ± 0.2
76 | TNALTHTVAMSTLNFCGPNVINHF [OR3A1] | 2.41 ± 0.57 | 2.47 ± 0.27
77 | ELPDPLGGLLDEAMLDEISLMDLA [NFE2L1] | 4.26 ± 0.54 | 4.55 ± 0.23
78 | FSTRALVLSILHATLPGIFMLLLI [SOAT2] | 3.16 ± 0.35 | 3.37 ± 0.52
79 | SRRVLLTNVVTGHRQSFGTNSDVL [DCAF4] | 2.87 ± 0.28 | 3.04 ± 0.26
80 | RREEEERRRIEEERLRLEQQKQQI [ACBD3] | 5.35 ± 0.19 | 5.05 ± 0.41
81 | DTRVYIWDPHNGDILMEFGHLFPP [WSB1] | 2.38 ± 0.98 | 2.42 ± 0.44
82 | TVDLELELQIELLRETKRKYESVL [ARFIP2] | 2.71 ± 0.19 | 2.91 ± 0.22
83 | TLGQAWQGYVSDIRRFLSAFHEPQ [DFFB] | 2.29 ± 0.18 | 2.04 ± 0.22
84 | RRGELRHITKLKPWSLFDVLVEKY [SRPK2] | 2.4 ± 0.53 | 2.12 ± 0.057
85 | GDTVVQGDLQETTVVTGLGPDTQD [PBXIP1] | 5.56 ± 0.17 | 5.63 ± 0.23
86 | VLVLTKPLGTQVAVNAHQWLDNPE [SEPHS2] | 2.4 ± 0.18 | 2.19 ± 0.37
87 | TKPSFESGRRGPPPPPRSRGPPRG [RBMX] | 4.74 ± 0.33 | 4.81 ± 0.29
88 | MRVDLRAGDEAVFAQYDSFHVDSA [TNXB] | 3.34 ± 0.56 | 3.22 ± 0.37
89 | QAQDEVEQERRLSEARLSQRDLSP [FCHSD1] | 5.46 ± 0.28 | 5.31 ± 0.24

From the supplement of paper PMC10567573
